In doi:10.1101/2021.10.31.466654:

Experiments:
[1] = target: Myc-tagged extracellular domain of NKp46 (human) (UniProt O76036); test: MST
[2] = target: recombinant NKp46 (Raman spectroscopy) (UniProt O76036); test: Raman spectroscopy

UniProt O76036, sequence (O76036 22-258): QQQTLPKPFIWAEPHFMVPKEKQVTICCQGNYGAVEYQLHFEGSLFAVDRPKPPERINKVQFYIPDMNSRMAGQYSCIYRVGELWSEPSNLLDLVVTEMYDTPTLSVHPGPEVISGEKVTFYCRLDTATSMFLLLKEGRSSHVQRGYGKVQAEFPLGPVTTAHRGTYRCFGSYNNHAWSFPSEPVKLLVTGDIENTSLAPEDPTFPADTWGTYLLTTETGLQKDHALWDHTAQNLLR

Substance	Kd [1] [µM]	Kd [2] [µM]
CRT P domain fused at the C-terminus to the Fc domain of human Ig (Fc fusion)	41.2	–
recombinant CRT (Raman spectroscopy) (from UniProt P27797 18-417) (natural protein)	–	9.95
